Source: publication PMC12188478, “Leveraging the Aminothiol-Specific Phosphorogenic Response of Iridium(III) Thioester Complexes for the Development of Intracellular Sensors and Cancer Phototherapeutics” (JACS Au, 2025)
Peptide text beside a SMILES is read from it. * marks the point of attachment. X1 = Cc1cc[n+]2c(c1)-c1cc(C(=O)*)cc[n+]1[Ir-3]213([c]2c(sc4ccccc24)-c2c4ccccc4cc[n+]21)[c]1c(sc2ccccc12)-c1c2ccccc2cc[n+]13; Isonicotinoyl(2-(4-Me-2-Py)) = Cc1ccnc(-c2cc(C(=O)*)ccn2)c1

How the values were obtained:
MDA-MB-231 cells [1] = test: Cellular uptake mechanism studies (ICP-MS); assay type: cell-based; conditions: 10 μM
Protocol: Conjugate 3a-CASP: MDA-MB-231 cells were seeded in a 35-mm tissue culture dish and incubated at 37 °C under a 5% CO2 atmosphere for 48 h. The culture medium was removed and replaced with conjugate 3a-CASP (10 μM) in medium/DMSO (99:1, v/v) at 37 °C under a 5% CO2 atmosphere for 4 or 16 h. In the low-temperature experiments, the cells were preincubated at 4 °C for 1 h prior to incubation with conjugate 3a-CASP (10 μM) in medium/DMSO (99:1, v/v) […]. In the chemical inhibition experiments, the cells were pretreated with EIPA (50 μM) for 1.5 h, Me-β-CD (5 mM) for 1 h, or chlorpromazine (30 μM) for 1 h at 37 °C under a 5% CO2 atmosphere. The cells were then washed with PBS (1 mL × 3) and incubated with conjugate 3a-CASP (10 μM) in medium/DMSO (99:1, v/v) at 37 °C under a 5% CO2 atmosphere for 16 h.
Conjugate 3a-CYNT: MDA-MB-231 cells were seeded in a 35-mm tissue culture dish and incubated at 37 °C under a 5% CO2 atmosphere for 48 h. The culture medium was removed and replaced with conjugate 3a-CYNT (10 μM) in medium/DMSO (99:1, v/v) at 37 °C under a 5% CO2 atmosphere for 16 h. In the CAIX inhibition experiments, the cells were pretreated with acetazolamide (1 mM) at 37 °C under a 5% CO2 atmosphere for 6 h. The cells were then washed with PBS (1 mL × 3) and incubated with conjugate 3a-CYNT (10 μM) in medium/DMSO (99:1, v/v) at 37 °C under a 5% CO2 atmosphere for 16 h.
Conjugate 3a-CMYI: MDA-MB-231 cells were seeded in a 35-mm tissue culture dish and incubated at 37 °C under a 5% CO2 atmosphere for 48 h. The culture medium was removed and replaced with conjugate 3a-CMYI (10 μM) in medium/DMSO (99:1, v/v) at 37 °C under a 5% CO2 atmosphere for 16 h. In the EGFR inhibition experiments, the cells were pretreated with gefitinib (50 μM) at 37 °C under a 5% CO2 atmosphere for 1 h. The cells were then washed with PBS (1 mL × 3) and incubated with conjugate 3a-CMYI (10 μM) in medium/DMSO (99:1, v/v) at 37 °C under a 5% CO2 atmosphere for 16 h.
For all the experiments, after incubation with the conjugates, the medium was removed, and the cells were washed with PBS (1 mL × 3). The cells were then trypsinized and harvested with PBS (1 mL). The cell numbers were measured by a Logos Biosystems LUNA-II automated cell counter. The resultant solution was digested with 65% HNO3 (1 mL) at 70 °C for 2 h, allowed to cool to room temperature, and analyzed by a NexION 2000 ICP-MS (PerkinElmer SCIEX Instruments).

HEK-293 cells [2] = test: MTT (photo)cytotoxicity assay; assay type: cell-based; conditions: ratio IC50,dark/IC50,light, 24 h incubation
Protocol: (§1) HeLa or HEK-293 cells were seeded in two 96-well flat-bottomed microplates (ca. 10,000 cells per well) in growth medium (100 μL) and incubated at 37 °C under a 5% CO2 atmosphere for 48 h. The growth medium was removed and replaced with medium/DMSO (100 μL, 99:1, v/v) containing complex 3a with concentrations ranging from 10^–5 to 10^–8 M. Wells containing untreated cells were used as blank control. The microplates were incubated at 37 °C in the dark under a 5% CO2 atmosphere for 2 h. After the treatment, the medium was removed and replenished with phenol red-free growth medium (100 μL). One of the microplates was irradiated at 450 nm (14.6 mW cm^–2) for 10 min with an LED cellular photocytotoxicity irradiator (PURI Materials, Shenzhen, China) and the other microplate was kept in the dark. Then the growth medium was replaced with fresh medium and the cells were further incubated at 37 °C under a 5% CO2 atmosphere for 24 h. The medium in each well was then replaced with fresh medium (90 μL) and 10 μL of MTT (5 mg mL^ –1) in PBS. The microplates were incubated at 37 °C under a 5% CO2 atmosphere for 4 h. The growth medium was then removed, and DMSO (100 μL) was added to each well. After 20 min, the absorbance of the solutions at 570 nm was measured with an Multiskan SkyHigh Microplate Spectrophotometer (Thermo Scientific). The IC50 values of the complex were determined from dose dependence of surviving cells after the treatment using the OriginPro 8.0 software package. For conjugates 3a-CASP, 3a-CYNT, and 3a-CMYI, the procedure was similar to that of complex 3a, except that MDA-MB-231, MCF-7, and HEK-293 cells were used and the conjugates were incubated for 24 h instead of 2 h before irradiation.

MCF-7 cells [3] = test: MTT (photo)cytotoxicity assay; assay type: cell-based; conditions: ratio IC50,dark/IC50,light, 24 h incubation
Protocol: as §1

MDA-MB-231 cells [4] = test: MTT (photo)cytotoxicity assay; assay type: cell-based; conditions: ratio IC50,dark/IC50,light, 24 h incubation
Protocol: as §1

HEK-293 cells [5] = test: Cellular uptake by ICP-MS; assay type: cell-based; conditions: 10 μM, 37 °C, 16 h
Protocol: (§2) HeLa or HEK-293 cells were seeded in a 35-mm tissue culture dish and incubated at 37 °C under a 5% CO2 atmosphere for 48 h. The culture medium was removed and replaced with complexes 1a and 3a (10 μM) in medium/DMSO (99:1, v/v) at 37 °C under a 5% CO2 atmosphere for 2 h. After the treatment, the medium was removed, and the cells were washed with PBS (1 mL × 3). The cells were then trypsinized and harvested with PBS (1 mL). The cell numbers were obtained by a Logos Biosystems LUNA-II automated cell counter. The resultant solution was digested with 65% HNO3 (1 mL) at 70 °C for 2 h, allowed to cool to room temperature, and analyzed by a NexION 2000 ICP-MS (PerkinElmer SCIEX Instruments). For conjugates 3a-Cys, 3a-CASP, 3a-CYNT, and 3a-CMYI, the procedure was similar to that of complexes 1a and 3a, except that MDA-MB-231, MCF-7, and HEK-293 cells were used and the conjugates were incubated for 16 h instead of 2 h before the measurements.

MCF-7 cells [6] = test: Cellular uptake by ICP-MS; assay type: cell-based; conditions: 10 μM, 37 °C, 16 h
Protocol: as §2

MDA-MB-231 cells [7] = test: Cellular uptake by ICP-MS; assay type: cell-based; conditions: 10 μM, 37 °C, 16 h
Protocol: as §2

[8] = 1O2 generation quantum yield; assay type: physicochemical; conditions: aerated CH3CN/H2O (4:1, v/v), 298 K, λex 450 nm
Protocol: The ^1O2 generation efficiencies of all complexes were evaluated by monitoring the emission band of ^1O2 centered at ca. […]

[9] = Reaction kinetics with L-Cys by HPLC; conditions: potassium phosphate buffer (50 mM, pH 7.0)/DMSO (3:2, v/v), TCEP 250 μM, 298 K
Protocol: The reactivity of the thioester complexes 1a–4a toward N-Cys-containing biomolecules in potassium phosphate buffer (50 mM, pH 7.0)/DMSO (3:2, v/v) containing tris(2-carboxyethyl)-phosphine (TCEP) (250 μM) at 298 K (Scheme ) were investigated using L-Cys as a model. […] The formation of the conjugation products 1a-Cys–4a-Cys was validated by ESI-MS analyses (Figure S7). The isolated conjugate 1a-Cys was further characterized by 1D and 2D COSY ^1H NMR. The signals at δ = 8.18 and 1.89 ppm in the ^1H NMR spectra (Figures S8 and S9) correspond to the CONH and SH protons, respectively, confirming the successful labeling of L-Cys with the thioester complex via the NCL reaction involving transthioesterification and an S → N acyl shift. […]
All reactions were performed on a 100-µL scale. The reaction kinetics of the thioester complexes 1a – 4a (20 µM) and ligand bpy-COSBn (100 µM) with L-Cys (25 µM for the complexes and 250 µM for the ligand) in potassium phosphate buffer (50 mM, pH 7.0)/DMSO (3:2, v/v) containing TCEP (250 µM) at 298 K was measured by reversed-phase high-performance liquid chromatography (RP-HPLC). The reactions at different time points were quenched by the addition of 900 µL of cold H2O/CH3CN (1:1, v/v) and then analyzed by RP-HPLC. […] The second-order rate constants (k2) were determined by fitting the data to the following equation: […]

## Cc1ccnc(-c2cc(C(=O)N[C@@H](CS)C(=O)N[C@@H](C)C(=O)N[C@@H](CO)C(=O)N3CCC[C@H]3C(=O)N[C@@H](CO)C(=O)NCC(=O)N[C@@H](C)C(=O)N[C@@H](CC(C)C)C(=O)N[C@@H](CCCNC(=N)N)C(=O)N[C@@H](CO)C(=O)N[C@@H](CS)C(=O)O)ccn2)c1 [Conjugate 3a-CASP] ({Isonicotinoyl(2-(4-Me-2-Py))}-CASPSGALRSC-OH; C-terminus assumed)
MDA-MB-231 cells [1]; 4 h, 4 °C versus 37 °C
  decrease in intracellular iridium content at 4 °C: ca. 70%
MDA-MB-231 cells [1]; 16 h, chlorpromazine 30 μM, 1 h
  reduction of cellular uptake efficiency after chlorpromazine pretreatment: ca. 30%
HEK-293 cells [2]
  PI: >18
MCF-7 cells [3]
  PI: >18
MDA-MB-231 cells [4]
  PI: >61
HEK-293 cells [5]
  Amount of iridium associated with an average cell: 0.074 fmol
MCF-7 cells [6]
  Amount of iridium associated with an average cell: 0.10 fmol
MDA-MB-231 cells [7]
  Amount of iridium associated with an average cell: 1.6 fmol
[8]
  1O2 generation quantum yield (ΦΔ): 0.24

## CC[C@H](C)[C@H](NC(=O)[C@H](Cc1ccc(O)cc1)NC(=O)[C@H](CCSC)NC(=O)[C@H](CS)NC(=O)c1cc[n+]2c(c1)-c1cc(C)cc[n+]1[Ir-3]213([c]2c(sc4ccccc24)-c2c4ccccc4cc[n+]21)[c]1c(sc2ccccc12)-c1c2ccccc2cc[n+]13)C(=O)N[C@@H](CCC(=O)O)C(=O)N[C@@H](C)C(=O)N[C@@H](CC(C)C)C(=O)N[C@@H](CC(=O)O)C(=O)N[C@@H](CCCCN)C(=O)N[C@@H](Cc1ccc(O)cc1)C(=O)N[C@@H](C)C(=O)N[C@@H](CS)C(=O)O [Conjugate 3a-CMYI] (X1-CMYIEALDKYAC-OH; C-terminus assumed)
MDA-MB-231 cells [1]; 16 h, gefitinib 50 μM, 1 h
  reduction of uptake after gefitinib (EGFR inhibitor) pretreatment: ~10%
HEK-293 cells [2]
  PI: >28
MCF-7 cells [3]
  PI: >25
MDA-MB-231 cells [4]
  PI: >109
HEK-293 cells [5]
  Amount of iridium associated with an average cell: 0.033 fmol
MCF-7 cells [6]
  Amount of iridium associated with an average cell: 0.074 fmol
MDA-MB-231 cells [7]
  Amount of iridium associated with an average cell: 0.21 fmol
[8]
  1O2 generation quantum yield (ΦΔ): 0.20

## Cc1cc[n+]2c(c1)-c1cc(C(=O)N[C@@H](CS)C(=O)N[C@@H](Cc3ccc(O)cc3)C(=O)N[C@@H](CC(N)=O)C(=O)N[C@H](C(=O)N[C@@H](CC(N)=O)C(=O)N[C@@H](Cc3c[nH]cn3)C(=O)N[C@H](C(=O)N3CCC[C@H]3C(=O)N[C@@H](CC(C)C)C(=O)N[C@@H](CO)C(=O)N3CCC[C@H]3C(=O)N[C@@H](CCCCN)C(=O)N[C@@H](Cc3ccc(O)cc3)C(=O)O)C(C)C)[C@@H](C)O)cc[n+]1[Ir-3]213([c]2c(sc4ccccc24)-c2c4ccccc4cc[n+]21)[c]1c(sc2ccccc12)-c1c2ccccc2cc[n+]13 [Conjugate 3a-CYNT] (X1-CYNTNHVPLSPKY-OH; C-terminus assumed)
MDA-MB-231 cells [1]; 16 h, acetazolamide 1 mM, 6 h
  reduction of uptake after acetazolamide (CAIX inhibitor) pretreatment: ca. 20%
HEK-293 cells [2]
  PI: >45
MCF-7 cells [3]
  PI: >38
MDA-MB-231 cells [4]
  PI: >139
HEK-293 cells [5]
  Amount of iridium associated with an average cell: 0.10 fmol
MCF-7 cells [6]
  Amount of iridium associated with an average cell: 0.10 fmol
MDA-MB-231 cells [7]
  Amount of iridium associated with an average cell: 1.8 fmol
[8]
  1O2 generation quantum yield (ΦΔ): 0.28

## Cc1ccnc(-c2cc(C(=O)SCc3ccccc3)ccn2)c1 [bpy-COSBn, S-benzyl 4’-methyl-2,2’-bipyridine-4-carbothioate]
[9]
  second-order rate constant (k2) for reaction with L-Cys: 11.3 M^–1 s^–1
